# Reference: the domain aggregation screens of Martell et al. (2025)
# Experiment: soluble fraction after stress (log2 fold change); higher = more stays soluble; pooled small domains, quantitative proteomics
# Conditions: stress: pH 4
# Procedure, shortened: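 Following acid stress at pH 4, the amount of each small protein domain still soluble was measured in pooled custom libraries by high-throughput quantitative proteomics. Its fold change, on a log2 scale, is higher when more of the domain stayed soluble. This fold change is taken as a measure of aggregation propensity.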
row,Sequence,soluble fraction (log2)
1,HMKNYYSILGVTPDSSEAEIKSAYRRLARKFHPDVNPDGASRFKDISEAYETLSDAKKRFQYDTINGF,0.234
2,HMKPATSITFIPSERPDLVEQLSKITFDKKDSLYENYINLNWLTFEAISVYMREGDIIGFST,-0.305
3,HMKPDAAKREQLIDIALRLFSQQGIARTSLNAIAREAGVTPAMLHYYFNSREQLLDVMIEERFL,-1.45
4,HMKPDIETQLKKYRYKVSVSKKIKPYMVFSDKTLSELLTKSPTNLKELEDINGFGPVKVQEYGAAILEILK,0.148
5,HMKPDSEFTSQDLWQNDLAGTGSAAYRRDKMGALLGIGYGNAKRFLERLNSYGVTRSEFDEALAQLGE,0.134
6,HMKPEDIALLEEIRDLLKEKKSVIVNLEYVNKDVARRIVDFISGGVFALNGHIQKVSNSIFLVAPMN,-0.26
7,HMKPMNNNDILRRLRYTFDLSDDKMMETFALGGYEANRSEISDWLKKDDHPEQKSLYDKSLSHFLNGFIV,-0.085
8,HMKPPVQVIGKAVVTASSLNVRTGPGTGHGIITSLPRNTEVELLEQQGEWYKIRRGSTVGYVHGGYLKIN,-0.095
9,HMKPRISMITLGVKDLNKSIEFYGGGLGFPRKKTEPEIAIFKLNGSWLSLYNRGLLAEDANVS,0.347
10,HMKPSKYTLAIDSIPVHVTRKQMKSIRLRVTPLGEVRVSAPYGVKDSEIVEMVRSRKLWIESQQRA,-0.0235
11,HMKPSTETLYATARINVRAAADTSAEKLGSIEMGEAVVRTGTDGDWSIIEYNGSTGYVKSEYLTANAGDAT,-0.188
12,HMKPSVEIKVNGGTGAGVVKKGGSITVTANEPAEGKVFTGWQDESGKIVSTQKEYTFTVAEGTTLTAVYED,-0.417
13,HMKPTGWVRGDMGVVDKGQLSITQGTVNVRSGPGLSYEILDQVRRGDRFPVIKSQSGWHNISM,0.361
14,HMKPTSLLGIERYLGSGLIRGVGPSTAKQIVEHFGMETMEVLTEHPERLQEVHGMGRKRWRQIAESFQEQQ,-0.0617
15,HMKPVTVINFVGMTEEKAMTEAEKLGLVVGASSSEYSDEPAGTVIRQSISVSTEAKTGDNIYFTVSKGPE,-0.416
16,HMKQETLNEIGTKIRKLRESKNLSIQEFADKLEMEYNNVIRIEKGRTNFTIGTLVKIANSLEVNLKDI,-1.01
17,HMKQFVVQYYGIDGEVINSVYKNGMSDLTSYEPEKIDGKNFKGWSLSEDSKKVIDENYRINSDVNLYAVYT,0.15
18,HMKQHPTIDLQIGQKLHYKEDVFEVTRFAKDKNGQDMVILKDPSIGSGIEIPWYRSKLEEIIESGQYKIT,-0.113
19,HMKQIEEIIARYTNENTPLMMILSDVQREYGYIPLDVQELISEKTGIPVAEIYGVVTFYSFFSL,-0.337
20,HMKQISQNIHRLRKEKGMSQEQLAQALHVTRQTVSAWERGIAQPSLDVLGQIAQLLGVEPERLLYGE,-0.16
21,HMKQLQIPYSFAKRHGVLLRYEGDQAFIVRRDNTSMLALQEARRLLGHPAHYLLYSEQEFNQLLSASFA,-0.455
22,HMKQLVVVPRVVSLSEGKAREDVGDRGLVVDRVEMDTLRTPYENTVTRQEPAADSRVPVGTRVTLWISPGV,-0.0648
23,HMKQNSDDGEIRKIIIEILDNNLDNVNKYKSGRTNVLDFFVGQVMKQTRGQANPELTRSILTEELSN,0.00746
24,HMKQQTRAELLDEFAKAHAERGLYFNRDYEQGEIQALQPDKAREYLQSALEARTERQQASEQDR,0.266
25,HMKQTDQELAEMLRFRAAQRGLLMSDEVVNYVMTRVERSAKSLIMLLDRIDRAALAQARPVTIPLINEL,-0.606
26,HMKQVEVPRLVGLTLREAQAVLGQVGLRIGLISRAALLASPREQIVEQIPVAGERNIATPYVNLLVNVP,-0.324
27,HMKRDEYIAQLKKYLKRLPKKEYDSAIEYFTEYFDEAGPERELEVIQELGQPKEAAKEMLLQLLNE,-0.506
28,HMKRDNETRRRIVAAAEELFRAKGLDGVNMRELAEMAGVNKGLLHYYFKTKQALFREILVGQMAL,-0.0908

row,Sequence,soluble fraction (log2)
1,HMKRDRLYGITIYLLNHGRTSAKTLAEYFEVSVRTIQRDMDALSMAKIPIIAYPGSDGGYEIQEGYRL,-0.37
2,HMKRDYELPAFIETYLKKNHVAIDTKSAAMIAEHIGADLSRLISELDKVMISLPDDDRRVTPDVVEREI,-0.436
3,HMKREETLKALATKNANYVARSGRRYSFEPMNPYERRIIHTAVQEIEGVTSRSIGSGMDRRVLIEPEGGV,-0.234
4,HMKRELFVEPGMRLEHTPSKTSGPVVSFIEGVIVVIKDQLGSEHRFDPVPGFFRHEGDLVALRSPLL,0.044
5,HMKRIDTILETFAKVHKHIPSKLILLGDGPELLDMRKIARSLHIEDDVLFLGKQDQVSKFYQMADLVLLL,0.15
6,HMKRIHLSDEEKTDLESLHYSSNDGKQRDRIKAVLLRSEGWTVPMISQALRIHETTVTRYLNDYREGKLKN,-0.143
7,HMKRITKKELKQAIVDVFADKPGQSFNYKQLATIIGIKDDPTRRMITDILYELVQEERIVELYRGKFKMEM,-0.335
8,HMKRLPFSFAKRFGVVVEDGEPPIVHHRDGASAETLLEVRRRLGQVFTLQRHDAEAFERLLTQAYQR,-0.837
9,HMKRPEPESPEAERRSQRAADWLVRRDRGLTAAEQDEFLQWLAIDPRHGEWFALHRSVVGEFSA,-1.12
10,HMKRQDFEFLVNLLRQNAGWDFDEEQYFVVDKKISNFIREKGYASVEDLIDELKVGAKPLISQVVESLAL,-2.01
11,HMKRTFGEISPLPSGRYRARYRGPDGERYPAPVTFLSRMDAETWLSAQARKVSSGDWTPPVGVVA,0.195
12,HMKRWHVGDPIDALTAAGKVPSWSTIRQRFWKTIAALYPDIEQSERLQRGLAMLDEAGTSIELHHP,-0.615
13,HMKRYLFEEVLAFLKHNDGKSFNYKQLGAAMEIDNESDRFALLETLEELKHQGFVIETDIGKYAAKE,-0.322
14,HMKSDELTKRRRLQIIEAAERSFRKRGFHATTLREIAAEFGMSVGHIYNYFSGKDAILEALIHQKIDD,-0.429
15,HMKSKHENLIDGLLKMISSMKPHDRLTPERQLAEEWAVSRMTLRRALEVLQFQGKIYTVPSSGLFVAEPK,-0.677
16,HMKSKPRVPFGSLVEMGILKPGSILFDPKGKIKTKVMVDGSIKYKETEGSIHKVAAQIMGTESYNGWTYW,-0.0629
17,HMKSLDDVISKFRPTGSENKIDFRKRVISEIHAQGFFKIKGSVNHVAKALGVTRYTVYNYLDKLND,≥ 0.43
18,HMKSLLTHAEEFVRNNNGRWMLAETSSKESYSSKQNFYLRNNYSIISEIRDFYSVGDNLLVFGKFFT,-0.242
19,HMKSNESAELGERMLNKALLALHTDSSKISDTQWQKLLRDYGAKNKQEILTDIGLGKRLNVMVAHQLMAMG,0.0391
20,HMKSNIGENIRQLREKREMSVERVARMLEVKPATVIGWESGRELPEPAELGLLAKLFDVTVEELN,-0.0738
21,HMKSNKEKIYDFIQMHDTAEKEGGVSTTYIAQALSLQRTNVSSLLNALVEEGRIHKSNGRPVLYSIAG,0.178
22,HMKSPAQAAALKKLWAAIKQNEQGEVVEVLFHNRKLTDAGLVHLKGLANLQTLNLYDTKITGAGLVHL,-0.0712
23,HMKSVLDDVAGLGPVRKKALLKAMGGFTRLRAASLDDILAVRAVPEEVAREVFAVLAQYNSVRNNDISE,≥ 0.43
24,HMKSVTAPLPGTVTQILVKVGDAVKAGDTVLMLEAMKMENSITAEAAGTVKAIRVEKGAQVQGGDVLIEM,-0.594
25,HMKTAAKVLGESGGKPVTVQSGRYGPYVQLGTIRATLPKDLDQEAVTLDKALELIDAKAERSGK,-0.0034
26,HMKTDFEIDITVKASSLRVVASPGGDELVGTVTRGDRVTQLATPKDGWILIKMTDGRLGYVPESLLLFP,-0.89
27,HMKTEIGQAMRKLRKAKKMTQDTLAEKLGVAPANISRYEKGQQGIEVDKLPTLADALGVSVPEFFAIASG,-0.142
